# Measurements: patent publication US20210170043A1, “DC-SIGN ANTIBODY CONJUGATES COMPRISING STING AGONISTS” (NOVARTIS AG, priority 2018, published 2021)
# Positions count from the first letter of the chain named. Names and notes keep the numbering of the source.
# T1: human DC-SIGN (Homo sapiens, UniProt Q9NNX6)
# T1 construct: expressed in transfected cells
# T1 sequence (Q9NNX6 1-404): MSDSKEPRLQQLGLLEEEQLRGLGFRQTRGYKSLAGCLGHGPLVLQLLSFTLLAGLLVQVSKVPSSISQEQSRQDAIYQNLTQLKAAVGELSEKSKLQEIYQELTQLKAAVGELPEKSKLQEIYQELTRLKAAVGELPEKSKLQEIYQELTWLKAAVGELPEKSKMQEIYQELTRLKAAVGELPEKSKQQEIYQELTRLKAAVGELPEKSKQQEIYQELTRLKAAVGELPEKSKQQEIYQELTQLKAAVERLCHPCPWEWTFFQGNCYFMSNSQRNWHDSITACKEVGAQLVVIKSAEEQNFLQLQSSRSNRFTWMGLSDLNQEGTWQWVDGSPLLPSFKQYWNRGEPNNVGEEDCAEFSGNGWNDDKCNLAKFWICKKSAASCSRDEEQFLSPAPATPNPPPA
# T2: human L-SIGN (Homo sapiens, UniProt Q9H2X3)
# T2 construct: expressed in transfected cells; host or cells: K562, retroviral transduction
# T2 sequence (Q9H2X3 1-399): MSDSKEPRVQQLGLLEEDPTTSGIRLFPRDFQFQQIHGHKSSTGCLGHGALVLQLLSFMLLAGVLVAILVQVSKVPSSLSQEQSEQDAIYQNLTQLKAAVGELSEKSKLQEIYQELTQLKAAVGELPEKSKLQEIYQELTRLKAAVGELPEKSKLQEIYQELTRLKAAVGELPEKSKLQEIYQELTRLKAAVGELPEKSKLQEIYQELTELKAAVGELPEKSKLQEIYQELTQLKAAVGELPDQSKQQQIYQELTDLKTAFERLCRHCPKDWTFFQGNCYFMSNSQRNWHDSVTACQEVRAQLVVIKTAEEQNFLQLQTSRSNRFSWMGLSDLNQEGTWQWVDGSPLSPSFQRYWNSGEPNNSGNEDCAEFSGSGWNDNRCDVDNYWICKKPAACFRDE
# B1: 952G04 N92Q: optimization of sequences by removal of post-translational modifications, non-preferred sites; substitutions made by site directed mutagenesis (antibody)
# heavy: QVTLRESGPALVKPTQTLTLTCTFSGFSLSTSGVSVTWIRQPPGKALEWLALIDWDDDKYYSTSLKTRLAISKDTSKNQVVLTMTNMDPVDTATYYCARTPSGSYGRYFDLWGRGTLVTVSSASTKGPSVFPLAPSSKSTSGGTAALGCLVKDYFPCPVTVSWNSGALTSGVHTFPAVLQSSGLYSLSSVVTVPSSSLGTQTYICNVNHKPSNTKVDKRVEPKSCDKTHTCPPCPAPELLGGPSVFLFPPKPKDTLMISRTPEVTCVVVAVSHEDPEVKFNWYVDGVEVHNAKTKPREEQYNSTYRVVSVLTVLHQDWLNGKEYKCKVSNKALAAPIEKTISKAKGQPREPQVYTLPPSREEMTKNQVSLTCLVKGFYPCDIAVEWESNGQPENNYKTTPPVLDSDGSFFLYSKLTVDKSRWQQGNVFSCSVMHEALHNHYTQKSLSLSPGK
# light: DIQMTQSPSTLSASVGDRVTITCRASQSISTWLAWYQQKPGKAPKLLIYEASSLESGVPSRFSGSGSGTEFTLTISSLQPDDFATYYCQQYQSYWTFGQGTKVEIKRTVAAPSVFIFPPSDEQLKSGTASVVCLLNNFYPREAKVQWKVDNALQSGNSQESVTEQDSKDSTYSLSSTLTLSKADYEKHKVYACEVTHQGLSSPVTKSFNRGEC
# B2: 960K03 N92S: optimization of sequences by removal of post-translational modifications, non-preferred sites; substitutions made by site directed mutagenesis (antibody)
# heavy: QVTLRESGPALVKPTQTLTLTCTFSGFSLSTGGMSVSWIRQPPGKALEWLALIDWDDDKYYSTSLKTRLTISKDTSKNQLVLTMTNMDPVDTATYYCARAHSGSYFDFWGQGTLVTVSSASTKGPSVFPLAPSSKSTSGGTAALGCLVKDYFPCPVTVSWNSGALTSGVHTFPAVLQSSGLYSLSSVVTVPSSSLGTQTYICNVNHKPSNTKVDKRVEPKSCDKTHTCPPCPAPELLGGPSVFLFPPKPKDTLMISRTPEVTCVVVAVSHEDPEVKFNWYVDGVEVHNAKTKPREEQYNSTYRVVSVLTVLHQDWLNGKEYKCKVSNKALAAPIEKTISKAKGQPREPQVYTLPPSREEMTKNQVSLTCLVKGFYPCDIAVEWESNGQPENNYKTTPPVLDSDGSFFLYSKLTVDKSRWQQGNVFSCSVMHEALHNHYTQKSLSLSPGK
# light: B1 light with S28R, T31N, E50K, Y91F, Q92S
# B3: 1G12 Hz: humanized VL and VH domains of antibody 1G12 (antibody)
# heavy: QVQLQESGPGLVKPSETLSLTCTVSGFSLTNYGVHWIRQPPGKGLEWIGVIWRGESTDYNAAFMSRVTISKDDSKSQVSLKLSSVTAADTAVYYCARNGGSSGWYFDVWGQGTTVTVSSASTKGPSVFPLAPSSKSTSGGTAALGCLVKDYFPCPVTVSWNSGALTSGVHTFPAVLQSSGLYSLSSVVTVPSSSLGTQTYICNVNHKPSNTKVDKRVEPKSCDKTHTCPPCPAPELLGGPSVFLFPPKPKDTLMISRTPEVTCVVVAVSHEDPEVKFNWYVDGVEVHNAKTKPREEQYNSTYRVVSVLTVLHQDWLNGKEYKCKVSNKALAAPIEKTISKAKGQPREPQVYTLPPSREEMTKNQVSLTCLVKGFYPCDIAVEWESNGQPENNYKTTPPVLDSDGSFFLYSKLTVDKSRWQQGNVFSCSVMHEALHNHYTQKSLSLSPGK
# light: DIQLTQSPSFLSASVGDRVTITCKASQDVTSAVAWYQQKPGKAPKLLIYWTSTRHTGVPSRFSGSGSGTEYTLTISSLQPEDFATYYCQQHYTTPLTFGQGTKLEIKRTVAAPSVFIFPPSDEQLKSGTASVVCLLNNFYPREAKVQWKVDNALQSGNSQESVTEQDSKDSTYSLSSTLTLSKADYEKHKVYACEVTHQGLSSPVTKSFNRGEC
# B4: 952P16 N92Q: optimization of sequences by removal of post-translational modifications, non-preferred sites; substitutions made by site directed mutagenesis (antibody)
# heavy: B1 heavy with T37S, A70T
# light: B1 light with T31N, E50K
# B5: 2B2 Chimeric: chimeric antibody chains comprising a murine variable region and human constant region (antibody)
# heavy: EVQLQQSGAELVRPGSSVKMSCKTSGYTFTNYGINWVKQRPGQGLEWIGYIYIGNDYTEYNERFKGKATLTSDTSSSTAHIQLNSLTSEDSAIYFCARLYYGSSLYSYAMDYWGQGTSVTVSSASTKGPSVFPLAPSSKSTSGGTAALGCLVKDYFPCPVTVSWNSGALTSGVHTFPAVLQSSGLYSLSSVVTVPSSSLGTQTYICNVNHKPSNTKVDKRVEPKSCDKTHTCPPCPAPELLGGPSVFLFPPKPKDTLMISRTPEVTCVVVAVSHEDPEVKFNWYVDGVEVHNAKTKPREEQYNSTYRVVSVLTVLHQDWLNGKEYKCKVSNKALAAPIEKTISKAKGQPREPQVYTLPPSREEMTKNQVSLTCLVKGFYPCDIAVEWESNGQPENNYKTTPPVLDSDGSFFLYSKLTVDKSRWQQGNVFSCSVMHEALHNHYTQKSLSLSPGK
# light: DIVMTQAAPSVSVTPGESVSISCRSSKSLLHSSGNTYLYWFLQRPGQSPQLLISRMSNLASGVPDRFSGSGSGTAFTLRISRVEAEDVGVYYCMQHLEYPYTFGGGTKLELKRTVAAPSVFIFPPSDEQLKSGTASVVCLLNNFYPREAKVQWKVDNALQSGNSQESVTEQDSKDSTYSLSSTLTLSKADYEKHKVYACEVTHQGLSSPVTKSFNRGEC
# Target: T1, human DC-SIGN
# Assay: FACS binding to CHO cells stably expressing human DC-SIGN
# Conditions: FACS MFI, average
# Method: (§1) The affinity of various antibodies and ADCs to DC-SIGN and its species orthologues was determined using FACS. Purified IgGs were titrated to determine EC50 values for binding to cell surface expressed DC-SIGN.
# (§2) For this purpose, human DC-SIGN expressing or cynomolgus monkey DC-SIGN expressing stable CHO cell lines or K562 expressing DC-SIGN or K562 expressing L-SIGN cell lines were checked for density and viability using VICELL (Beckman Coulter), and washed once with 4° C. PBS. Cells were stained with DAPI (0.5 ug/mL) diluted in PBS for 30 min on ice. Cells were diluted into 4° C. FACS buffer (PBS, 10 mM EDTA, 2% FBS). 125 μl of cells were seeded (10,000 cells/well) into 96-well v-bottom plates (Nunc cat#442587) and centrifuged for 4 min at 1500 rpm at 4° C. Supernatant was removed. Cells were incubated with a serial dilution of each anti-DC-SIGN antibody in FACS buffer at concentrations ranging across several logs with a top concentration no higher than 50 μg/mL for 60 minutes at 4° C. Following incubation, cells were spun down (1500 rpm, 4 min, 4° C.) and washed two times with FACS buffer. A fluorophore-conjugated anti-hFc gamma-AF-647 (Southern Biotechnology) detection antibody was added at 1:400 and samples were incubated for 1 h on ice in the dark. Following incubation, FACS buffer was added, and the cells were spun down (1500 rpm, 4 min, 4° C.) and washed two times with FACS buffer. After the final wash, cells were resuspended in Fixative Buffer (Biolegend, 420801) and 90 μl of FACS buffer followed by readout on the flow cytometry machine (BD LSRFortessa Cell Analyzer; Cat #647177). Geometric Mean fluorescence intensity (MFI) of live, single cells was calculated in Flowjo 10.4.2 and exported into Graphpad Prism7 for EC50 determination.
row,Molecule,human DC-SIGN CHO EC50 (ug/mL) ave.
1,B1,0.07 µg/mL
2,B2,0.06 µg/mL
3,B3,0.07 µg/mL

# Test system: cynomolgus monkey DC-SIGN
# Sequence (as listed by the source): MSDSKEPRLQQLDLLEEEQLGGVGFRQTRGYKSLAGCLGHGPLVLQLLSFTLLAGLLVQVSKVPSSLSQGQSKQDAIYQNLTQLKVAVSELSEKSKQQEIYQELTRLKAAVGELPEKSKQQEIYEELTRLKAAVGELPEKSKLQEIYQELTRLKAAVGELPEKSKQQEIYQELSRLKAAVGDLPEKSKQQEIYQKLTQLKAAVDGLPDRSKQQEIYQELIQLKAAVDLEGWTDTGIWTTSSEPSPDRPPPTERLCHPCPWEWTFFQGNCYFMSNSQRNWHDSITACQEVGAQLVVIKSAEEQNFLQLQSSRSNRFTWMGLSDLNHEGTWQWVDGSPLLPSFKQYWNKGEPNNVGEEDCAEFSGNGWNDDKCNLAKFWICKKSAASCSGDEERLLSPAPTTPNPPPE
# Assay: FACS binding to CHO cells stably expressing cynomolgus monkey DC-SIGN
# Conditions: FACS MFI, average
# Method: as §1, §2
# In a similar experiment the antibodies were tested for cross-reactivity using engineered isogenic matched cell line.
row,Molecule,cyno DC-SIGN CHO EC50 (ug/mL) ave.
1,B1,0.02 µg/mL
2,B2,0.08 µg/mL
3,B3,0.06 µg/mL

# Target: T1, human DC-SIGN
# Assay: FACS binding to K562 cells expressing human DC-SIGN
# Conditions: FACS MFI
# Method: as §1, §2
row,Molecule,human DC-SIGN K562 EC50
1,B4,0.024 µg/mL
2,B1,0.017 µg/mL
3,B2,0.049 µg/mL
4,B3,0.021 µg/mL

# Target: T2, human L-SIGN
# Assay: FACS binding to K562 cells expressing human L-SIGN (selectivity)
# Conditions: FACS MFI
# Method: as §1, §2
# Selectivity was assessed by measuring apparent binding affinities to isogenic cell pairs engineered to overexpress DC-SIGN as well as cell lines expressing DC-SIGN paralog L-SIGN.
row,Molecule,human L-SIGN K562 EC50
1,B5,>10 µg/mL
2,B4,>10 µg/mL
3,B1,>10 µg/mL
4,B3,>10 µg/mL
